This is an account of results in the RNAGym collection of RNA variant scans (doi:10.1021/acssynbio.7b00057).

B1: Pistol ribozyme (parent)
chain: GGGUCGUUGUUCCAUAAUCGCGUGGAUAUGGCACGCAAGUUUCUACCGGGCACCGUAAAUGUCCGACUGGAGCCGUUCGGGCGGCUAUAAACAGACCUCAGGCCCGAAGCGUGGCGGCACCUGCCGCCGGUGGUAAAAAAGAUCGGAAGAGCACACGUCU

The variants in this data set derive from B1. Description: aptazyme ON/OFF ratio, guanine; higher = stronger switching; co-transcriptional cleavage with and without guanine.
Turning to U7C U10C U11C, the “aptazyme ON/OFF ratio” value was found to be 1.74. To U7C U10C U11A belongs 2.11; to U7C U10C U11G, 1.21; to U7C U10A U11G, 1.46. Turning to U7C U10A U11C, the “aptazyme ON/OFF ratio” value is 1.04. Under U7C U10A U11A stands 1.29.

In the case of U7C U8G U10G C12A C13A, the “aptazyme ON/OFF ratio” value was 1.24.

For the variant U7C U8G U10G C12A C13U, the “aptazyme ON/OFF ratio” value came to 1.33. Under U7C U8G U10G C12A C13G stands 1.09; under U7C U8G U10G U11G C13A, 1.21. To U7C U8G U10G U11G C13G belongs 1.28; to U7C U8G U10G U11G C13U, 1.39. To U7C U8G U11C C12G C13U belongs 1.17. Turning to U7C U8G U11C C12G C13A, the “aptazyme ON/OFF ratio” value came to 1.15. To U7C U8G U11C C12G C13G belongs 1.17; to U7C U8G U11G C12G C13A, 1.07. To U7C U8G U11G C12G C13U belongs 1.05; to U7C U8G U11G C12G C13G, 1.08.

For the variant U7C U8G U10G U11G C12A C13A, the “aptazyme ON/OFF ratio” value amounted to 1.11. To U7C U8G U10G U11G C12A C13U belongs 1.26. Turning to U7C U8G U10G U11G C12A C13G, the “aptazyme ON/OFF ratio” value is 1.19. To U7C U10A U11G C12U C13G belongs 1.2; to U7C U10A U11G C12U C13U, 1.5. To U7C U10A U11G C12U C13A belongs 1.35; to U7C U10C U11C C12G, 1.28. In the case of U7C U10C U11C C12U, the “aptazyme ON/OFF ratio” value is 1.31.

On to U7C U10C U11C C12A, for which the “aptazyme ON/OFF ratio” value came to 1.29. Under U7C U10C U11A C12U stands 1.42; under U7C U10C U11A C12A, 1.53; under U7C U10C U11A C12G, 1.38.

With U7C U10C C12G, the “aptazyme ON/OFF ratio” value came out at 1.28. To U7C U10C C12A belongs 1.26; to U7C U10C C12U, 3.58; to U7C U8G U10C U11G C12U C13U, 1.25. Under U7C U8G U10C U11G C12U C13A stands 1.24; under U7C U8G U10C U11G C12U C13G, 1.17; under U7C U10G C12A C13G, 1.14. For U7C U10G C12A C13U, the “aptazyme ON/OFF ratio” value came to 1.15. For U7C U10G C12A C13A, the “aptazyme ON/OFF ratio” value came out at 1.15. Under U7C U8G U10G stands 1.22; under U7C U10C U11A C13U, 1.38.

U7C U10C U11A C13A: the “aptazyme ON/OFF ratio” value amounted to 1.14. Under U7C U10C U11A C13G stands 1.21; under U7C U8G U10G C13G, 1.29; under U7C U8G U10G C13U, 1.35. Under U7C U8G U10G C13A stands 1.4. Under U7C U10G C12A stands 1.11; under U7C U10G C12G, 1.18. Regarding U7C U10G C12U, the “aptazyme ON/OFF ratio” value is 1.32. For U7C U8G U10C U11C C12U C13G, the “aptazyme ON/OFF ratio” value worked out at 1.23.

As to U7C U8G U10C U11C C12U C13U, the “aptazyme ON/OFF ratio” value was 1.1. As for U7C U8G U10C U11C C12U C13A, the “aptazyme ON/OFF ratio” value was found to be 1.04. To U7C U10A U11G C13U belongs 1.28. Under U7C U10A U11G C13A stands 1.24; under U7C U10A U11G C13G, 1.17. Under U7C U10G U11C C12U C13U stands 1.27; under U7C U10G U11C C12U C13A, 1.28.

For U7C U10G U11C C12U C13G, the “aptazyme ON/OFF ratio” value is 1.16. Under U7C U8G U11G C12U C13G stands 1.07; under U7C U8G U11G C12U C13U, 1.17. To U7C U8G U11G C12U C13A belongs 1.11.

Take U7C U10A U11G C12G C13A: the “aptazyme ON/OFF ratio” value was found to be 1.26. To U7C U10A U11G C12G C13U belongs 1.12; to U7C U10A U11G C12G C13G, 1.16; to U7C U10G U11A C13U, 1.08. In the case of U7C U10G U11A C13G, the “aptazyme ON/OFF ratio” value stood at 1.18. For U7C U10G U11A C13A, the “aptazyme ON/OFF ratio” value amounted to 1.1. To U7C U8G U10G U11A C13A belongs 1.18; to U7C U8G U10G U11A C13U, 1.28.

With U7C U8G U10G U11A C13G, the “aptazyme ON/OFF ratio” value worked out at 1.13. To U7C U8G U10C U11G C12A C13A belongs 1.11; to U7C U8G U10C U11G C12A C13U, 1.32. Under U7C U8G U10C U11G C12A C13G stands 1.1; under U7C U10G U11G, 1.23.

Consider U7C U10G U11C, for which the “aptazyme ON/OFF ratio” value was 1.1. Under U7C U10G U11A stands 1.1; under U7C U10C C13U, 2.47; under U7C U10C C13A, 1.11. Under U7C U10C C13G stands 1.28; under U7C U8G U10G U11A C12A, 1.21. U7C U8G U10G U11A C12U: the “aptazyme ON/OFF ratio” value came out at 1.37. To U7C U8G U10G U11A C12G belongs 1.14. To U7C U10A C12G belongs 1.29.
